Test results from the supplement of paper PMC10724198.
± gives the standard deviation of the averaged measurements.

Tested on: Saccharomyces cerevisiae
Test: protein stability index of tFT-peptide fusion (C-terminal peptide) (PSI (0-1 scale)); higher = more stable (slower turnover)
Conditions: genetic background: wild type; temperature: 30 C
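Further: PSI is a weighted mean of sequencing reads over stability bins, variants kept only with over 10 reads, mCherry proximal and sfGFP distal, peptide attached via GGGS linker.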

In order of falling protein stability index:
1. TALFRLRRPRLR  0.801 ± 0.021
2. SWFYTQSEKTLS  0.7798 ± 0.005
3. TPLLRRHSFSRN  0.779 ± 0.021
4. SRLYGHDLRCRL  0.777 ± 0.091
5. SYGWSQGPLSCW  0.767 ± 0.01
6. SVNRRTVYRKNK  0.764 ± 0.17
7. SRALSPRAPFGN  0.76 ± 0.15
8. SRFRKSSGLLLK  0.758 ± 0.09
9. SSPRQITTLTRL  0.757 ± 0.037
10. TPPTHPPPLPPL  0.752 ± 0.11
11. SWGHTGTLRNDI  0.747 ± 0.035
12. SRGNIPVCEGWS  0.742 ± 0.028
13. TLSYSPPCSPRH  0.742 ± 0.03
14. SSSDPYLLFCHS  0.741 ± 0.37
15. SRCYKETGKVRE  0.736 ± 0.0071
16. STPPAPPPLLPP  0.736 ± 0.031
17. TLVPAYRCEWCA  0.736 ± 0.046
18. TPLPSLPRPSAP  0.736 ± 0.016
19. SWTCSPLKSFHS  0.734 ± 0.049
20. SRAYDKSRNISI  0.731 ± 0.062
21. SSLVAFPPLPAP  0.731 ± 0.024
22. STFRICTGVPRP  0.729 ± 0.0093
23. SSDNKGLFDTRI  0.728 ± 0.024
24. TGTPGAVRRGGA  0.727 ± 0.1
25. TKQIKKNKHKRA  0.727 ± 0.12
26. SVLRGLCFDGYR  0.7252 ± 0.0064
27. SPTPRLGGPPPI  0.723 ± 0.015
28. SRRLSLSSLAFP  0.723 ± 0.0074
29. SVIYQMMGRIVR  0.723 ± 0.07
30. TLCFSFPVPGFL  0.723 ± 0.1
31. SRRRRGRGEWFG  0.722 ± 0.019
32. THVKVNNQARGR  0.722 ± 0.014
33. SWECRGMGVCGG  0.721 ± 0.02
34. SSCFVIRSLSNP  0.72 ± 0.14
35. TGRRLVLGDRCM  0.72 ± 0.011
36. TGLMAPEGGGQA  0.719 ± 0.076
37. TLRPPPPPAFPP  0.719 ± 0.084
38. SPSPPPTPGSPP  0.718 ± 0.15
39. SPTLPLTRRHPR  0.718 ± 0.035
40. SSSLPPSHFYPP  0.718 ± 0.064
41. SSLPLPRVPPPP  0.717 ± 0.032
42. SSPPSARSPPPP  0.717 ± 0.076
43. SYVYETERNEST  0.715 ± 0.019
44. TKKRKRKKKGNK  0.715 ± 0.05
45. SSFFAFYSRRRF  0.714 ± 0.052
46. SVPSRSSAALCS  0.714 ± 0.067
47. TIRHKALTRKSR  0.713 ± 0.012
48. SSLSLDERKPRT  0.712 ± 0.23
49. STVESAWPAGPA  0.712 ± 0.0016
50. TQHPQPCPLAAV  0.712 ± 0.12
51. SRLPRGTYRGCP  0.711 ± 0.076
52. TGWSRTTVGFAT  0.711 ± 0.046
53. TAGPHPLSLPPP  0.709 ± 0.033
54. TPTPPRPPFRSP  0.709 ± 0.035
55. TPVPIARLRESH  0.709 ± 0.035
56. SSRTPPRFYSLP  0.708 ± 0.0074
57. SVSPRPSPPAVP  0.708 ± 0.13
58. TARAGRTASAPR  0.7084 ± 0.0025
59. TKIENYKRKRAK  0.708 ± 0.1
60. TLQLFPRIPSFQ  0.707 ± 0.0019
61. SSFLFVPHHYPS  0.706 ± 0.044
62. SSLWGAGGRGID  0.706 ± 0.011
63. TMQDSNKSQGCA  0.706 ± 0.019
64. SRFIDLLFPSSP  0.705 ± 0.0074
65. SSPVDPLRPPAP  0.704 ± 0.013
66. SYTIPPSTYLPS  0.704 ± 0.043
67. TNNTKRDKKRIQ  0.703 ± 0.16
68. SPVFYYCPGYVD  0.702 ± 0.05
69. SWICSTRSYQRE  0.702 ± 0.044
70. TRGGTVKDRQQR  0.702 ± 0.037
71. SVPLTPKTPPPP  0.701 ± 0.049
72. SRKASWECVRGG  0.699 ± 0.015
73. SVRLVGHGARDR  0.699 ± 0.18
74. TLCCLFPIPSSS  0.699 ± 0.08
75. SRSPRSRSRHES  0.69769 ± 0.00032
76. SSSVFFFLRRFR  0.698 ± 0.025
77. TKIKKKTQEGSR  0.698 ± 0.029
78. TPHNQPKPTPPC  0.698 ± 0.032
79. SQLGDGLLGEGV  0.697 ± 0.044
80. TFFGEDVGVVVD  0.69681 ± 0.00058
81. TEVSDVSWSEVW  0.696 ± 0.025
82. SQRRGLLGRFRI  0.695 ± 0.011
83. SSCVSDKLLKNG  0.695 ± 0.011
84. SQQFGSILPGEL  0.694 ± 0.018
85. SSLPDSPLNRER  0.693 ± 0.038
86. SSPPPSAHPLPS  0.6933 ± 0.0055
87. SWVVSLGFAIGL  0.693 ± 0.055
88. TPSFTLNAYMLT  0.693 ± 0.014
89. SRTNVKVRKTGV  0.6916 ± 0.0059
90. TGGKGNKNKIKE  0.692 ± 0.031
91. SSVFPSSPAFLP  0.691 ± 0.0099
92. SQTPPPAPSGHH  0.69 ± 0.099
93. TACPPSTPSTAF  0.689 ± 0.033
94. TMLPQGFSGNLH  0.6891 ± 0.0025
95. SSPPSPPPLTLY  0.687 ± 0.02
96. TGRQQTCRIIIE  0.6873 ± 0.00092
97. SPTNNTSTQSQT  0.686 ± 0.012
98. SSMCPDGGYQWV  0.686 ± 0.0074
99. TERPMAVESRAW  0.686 ± 0.012
100. TMSPPSTSGGMG  0.6855 ± 0.0042
101. TPLPLPPPRPSP  0.685 ± 0.0031
102. SRCIIGILTRNF  0.6836 ± 0.0035
103. SRGWLHVVGGQV  0.6843 ± 0.004
104. SSTGRGRGCQEM  0.684 ± 0.0086
105. SWMDRGGSYSGI  0.684 ± 0.12
106. STVSLASPARSP  0.683 ± 0.048
107. SVGSLLAFLHRR  0.68336 ± 0.00055
108. SYGSLFCSHLDG  0.6828 ± 0.0014
109. TARVPARLTHAS  0.683 ± 0.029
110. SRPPPFFPPASP  0.682 ± 0.01
111. SSGLALGCPLGA  0.682 ± 0.062
112. SSGALLLLTGFM  0.681 ± 0.013
113. SVLSPTLESLIF  0.681 ± 0.032
114. TEHRVGEKEPWH  0.681 ± 0.018
115. SPYLGTYAPVIK  0.6804 ± 0.0032
116. SRAVTDRGWSPR  0.68 ± 0.028
117. SRVGWSRLGPGL  0.68 ± 0.022
118. TQSNRKPLECPS  0.679 ± 0.066
119. TFDNEYKRSRKV  0.678 ± 0.033
120. THMSPLPTSERW  0.678 ± 0.085
121. STGLRISPPAYM  0.677 ± 0.0069
122. TPPPTPSLPTRP  0.677 ± 0.057
123. SVPYALPTTPPR  0.676 ± 0.045
124. TNMTRWRIRVRD  0.676 ± 0.053
125. SSFLAPFRFPLL  0.675 ± 0.093
126. TPHRVGRAAATR  0.675 ± 0.02
127. TPVVSVFFLPHY  0.673 ± 0.0095
128. TDPLGDDSSESE  0.672 ± 0.048
129. TGSRISHSPLYP  0.671 ± 0.02
130. TPPLHSPFLFPP  0.671 ± 0.049
131. SRDSGLIDPRFS  0.66973 ± 0.00044
132. SRLGVIRGIGLV  0.67 ± 0.025
133. SSSRCRVGHAGW  0.67 ± 0.0096
134. THVDLGVLVSPE  0.6698 ± 0.0017
135. TRPKINKGKGTG  0.6677 ± 0.0014
136. SVYFSLITRPYY  0.667 ± 0.012
137. SPVTDRRKRRNN  0.666 ± 0.012
138. TLAPSKHGSNRT  0.666 ± 0.049
139. TLYEVHQSENSR  0.666 ± 0.016
140. STNNSGRPMSFL  0.664 ± 0.045
141. SWCQFAVGGIIH  0.664 ± 0.013
142. TRIEPTQGVDSP  0.664 ± 0.01
143. STCSTSQPPSPS  0.663 ± 0.069
144. TFHTSSSPAHLP  0.663 ± 0.038
145. TPTPPPSFLHGS  0.663 ± 0.046
146. TFSVNLGAASAK  0.662 ± 0.042
147. SQKNTQLEADGK  0.661 ± 0.0093
148. SRFSPSLPPFLP  0.661 ± 0.055
149. SSLLFVMSYGLL  0.661 ± 0.027
150. SRASATTLRLAT  0.66 ± 0.015
151. SSPTRARLFFPH  0.659 ± 0.039
152. SSSVPHFIFLPR  0.656 ± 0.028
153. SRGTKAERISIG  0.654 ± 0.013
154. TEKQSGRINTAI  0.653 ± 0.034
155. SSSTPGRATRVS  0.652 ± 0.034
156. THRNEKQGTVTY  0.651 ± 0.016
157. STLCVRLITSAR  0.649 ± 0.077
158. TAPRERFGKDPR  0.649 ± 0.056
159. SSRRQSSRPPHS  0.648 ± 0.025
160. SRCPLLNGIGFR  0.6471 ± 0.0025
161. SRVARWRSPGCC  0.6474 ± 0.0012
162. THSLSCPPRNPP  0.647 ± 0.07
163. TPKAMHPNPNTL  0.6458 ± 0.0024
164. TGRGVFCMSIHM  0.643 ± 0.045
165. SPVFSDFLLSLC  0.642 ± 0.028
166. TLRLPLHLLRPT  0.642 ± 0.021
167. SVIGLNLVGMGW  0.641 ± 0.046
168. SSGRHCLPCANV  0.64 ± 0.017
169. SSLERVHVCPLE  0.64 ± 0.079
170. SRGQSSNEVSPL  0.637 ± 0.017
171. SRYVSGGRKRKV  0.636 ± 0.045
172. STKGAIKVEECI  0.636 ± 0.023
173. SVVVVAKAKAGR  0.635 ± 0.047
174. STIIYFLTYSDK  0.634 ± 0.063
175. SRNVGRWSLRVV  0.632 ± 0.024
176. THPPPPPPACSV  0.632 ± 0.037
177. TIATASWILRRL  0.624 ± 0.0045
178. SRASATYLFNLH  0.622 ± 0.012
179. SVWFSFVKVRGG  0.612 ± 0.0037
180. SWYAGGRRWIVV  0.608 ± 0.022
181. SSFRRFVLVGFE  0.607 ± 0.011
182. TPVLPLSPFPPD  0.607 ± 0.059
183. TPRSCTLPTPPP  0.606 ± 0.051
184. SWVELCSQEVVI  0.603 ± 0.01
185. TAYRGCSDRNAG  0.603 ± 0.042
186. SRPLFLSLFSSV  0.599 ± 0.14
187. SRFILSRLPLLS  0.595 ± 0.065
188. SVVVIGSSYASG  0.5899 ± 0.0023
189. TGVGRLGYRFVV  0.588 ± 0.0064
190. SSGISEGFERGG  0.581 ± 0.014
191. SVVLIQVVSKPT  0.58 ± 0.015
192. SWGLSVSSCFVW  0.578 ± 0.0066
193. TPPPPLVPPLPP  0.578 ± 0.017
194. TRGSLIFACSVF  0.576 ± 0.033
195. SPVSLLSFRLLL  0.573 ± 0.022
196. SPYLRISGLVFC  0.557 ± 0.045
197. SQPIRAMILRVP  0.53 ± 0.00096
198. TLCTSPWGVVAV  0.511 ± 0.024
199. TCRGRLCVCLFC  0.505 ± 0.015
200. STSYLKLKYSIY  0.498 ± 0.038
201. TPPPPLSCPPPS  0.487 ± 0.035
202. TLSFPFRPLRLA  0.48 ± 0.033
